Measured values taken from US20170210812A1.

Tests used:
[1] = biological target: EGFRvIII expressed on cells (human) (UniProt P00533); assay: cell-based or functional assay
[2] = biological target: wild-type EGFR expressed on cells (human) (UniProt P00533); assay: cell-based or functional assay

| percentage of live target cells, DKMG with activated T cells, 1 nM antibody [1] [%] | percentage of live target cells, LN18-EGFRvIII with activated T cells, 0.01 nM antibody [1] [%] | percentage of live target cells, parental LN18 with activated T cells, 0.01 nM antibody [2] [%] | percentage of live target cells, LN229-EGFRvIII with activated T cells, 0.01 nM antibody [1] [%] | percentage of live target cells, parental LN229 with activated T cells, 0.01 nM antibody [2] [%] | Binder |
| --- | --- | --- | --- | --- | --- |
| 35 | 20 | 100 | – | – | h62G7-EQ/L6/CD3 biFc (bispecific antibody, part only; not given: anti-CD3 arm and Fc, V domains shown, part only) VH: QVQLVQSGAEVKKPGASVKVSCKASGYTFTDYTLHWVRQAPGQGLEWMGGIWPITGGTTYNQKFKGRVTMTRDTSTSTVYMELSSLRSEDTAVYYCARGEAQGSWGQGTLVTVSS VL: DVVMTQSPLSLPVTLGQPASISCKSSQSLLYSNGKTYLNWFQQRPGQSPRRLIYQVSKLDSGVPDRFSGSGSGTDFTLKISRVEAEDVGVYYCGQDTHFPLTFGGGTKVEIK |
| – | – | – | 35 | 100 | 42G9/CD3 biFc (bispecific antibody, part only; not given: anti-CD3 arm and Fc, V domains shown, part only) VH: QVTLKESGPVLLKPTETLTLTCTVSGFSLSNPRMGVSWIRQPPGKALEWFAHIFSTDEKSLKLSLRSRLTLSKDTSKSQVVLTMTNMAPVDSATYYCARDSSNYEGYFDFWGQGTLVTVSS VL: EVVLTQSPATLSVSPGERATLSCRASQSVRSNLAWYQQKSGQAPRLLIYGSTIRATGVPARFSGSGSGTEFTLTISSLQSEDFAVYYCQQYSDWPFTFGPGTKVDIK |
